From the supplement of paper PMC6379048 come the findings set out here.

Broadly, the Kd is the concentration at which binding is half-saturated. Read a high Kd as weaker binding.

What all share (assay): Kd (EC50 corrected by depletion factor)
One data set has as its target T1, SRSF11 (UniProt Q05519).
T1 sequence: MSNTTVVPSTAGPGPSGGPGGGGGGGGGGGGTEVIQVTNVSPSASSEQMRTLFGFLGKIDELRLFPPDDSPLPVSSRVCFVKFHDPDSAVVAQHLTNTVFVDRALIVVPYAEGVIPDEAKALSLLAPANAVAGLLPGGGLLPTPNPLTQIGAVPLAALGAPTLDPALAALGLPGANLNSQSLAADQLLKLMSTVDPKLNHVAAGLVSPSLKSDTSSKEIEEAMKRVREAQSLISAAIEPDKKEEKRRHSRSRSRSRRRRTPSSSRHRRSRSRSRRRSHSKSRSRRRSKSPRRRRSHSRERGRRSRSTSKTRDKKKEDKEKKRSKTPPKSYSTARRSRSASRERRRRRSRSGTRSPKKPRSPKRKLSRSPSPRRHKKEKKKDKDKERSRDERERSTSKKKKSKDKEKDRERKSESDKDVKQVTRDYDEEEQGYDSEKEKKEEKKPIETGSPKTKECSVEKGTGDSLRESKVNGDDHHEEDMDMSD
In outline: (§1)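 Kd was calculated as EC50, taken from a four-parameter log-logistic fit, multiplied by a protein-dependent depletion factor. The assay used HEK293-FT lysate (2.5 mg protein/well) pre-incubated for 1 h at 4°C with free RNA oligos (0 nM to 30 μM), then incubated for 30 min at 4°C with the matching oligos bound through a 5′-amino-C6 linker to NHS-Sepharose beads. Bound proteins were measured by label-free LC-MS/MS and normalised to the control.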

A further data set has as its target T2, ZGPAT (UniProt Q8N5A5).
T2 sequence: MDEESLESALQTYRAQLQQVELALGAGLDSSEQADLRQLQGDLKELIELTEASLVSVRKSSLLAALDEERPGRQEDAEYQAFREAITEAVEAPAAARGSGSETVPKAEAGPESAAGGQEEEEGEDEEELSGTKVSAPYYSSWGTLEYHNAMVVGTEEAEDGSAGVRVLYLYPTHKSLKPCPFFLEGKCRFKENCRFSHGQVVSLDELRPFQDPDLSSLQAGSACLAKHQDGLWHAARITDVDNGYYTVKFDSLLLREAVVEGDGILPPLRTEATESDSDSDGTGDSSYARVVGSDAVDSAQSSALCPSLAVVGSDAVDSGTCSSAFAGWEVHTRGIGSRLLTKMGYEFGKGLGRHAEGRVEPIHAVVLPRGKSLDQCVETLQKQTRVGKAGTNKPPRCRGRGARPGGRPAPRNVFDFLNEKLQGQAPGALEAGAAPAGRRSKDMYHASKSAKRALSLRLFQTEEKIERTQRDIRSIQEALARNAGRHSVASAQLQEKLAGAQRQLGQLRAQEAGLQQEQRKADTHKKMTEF
In outline:
as §1

The target in the next data set is T3, HNRNPF (UniProt P52597).
T3 sequence: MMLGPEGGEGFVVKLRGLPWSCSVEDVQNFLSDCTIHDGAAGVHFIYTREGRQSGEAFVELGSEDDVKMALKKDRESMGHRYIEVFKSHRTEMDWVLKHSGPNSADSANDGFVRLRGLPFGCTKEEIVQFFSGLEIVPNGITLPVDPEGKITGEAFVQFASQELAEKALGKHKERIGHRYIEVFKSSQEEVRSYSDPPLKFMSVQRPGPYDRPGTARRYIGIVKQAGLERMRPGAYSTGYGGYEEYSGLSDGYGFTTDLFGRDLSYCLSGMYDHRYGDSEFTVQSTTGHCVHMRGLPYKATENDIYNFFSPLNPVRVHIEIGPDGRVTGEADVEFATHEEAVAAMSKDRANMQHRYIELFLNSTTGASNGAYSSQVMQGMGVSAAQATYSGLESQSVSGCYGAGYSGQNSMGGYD
A digest of the protocol:
as §1

For the next data set, the target named is SF3B6 (UniProt Q9Y3B4). A digest of the protocol:
as §1

Another data set has as its target RPS17 (UniProt P08708). In outline:
as §1

The target of another data set is PCBP2 (UniProt Q15366). A digest of the protocol: as §1
PCBP2, sequence (Q15366 whole entry): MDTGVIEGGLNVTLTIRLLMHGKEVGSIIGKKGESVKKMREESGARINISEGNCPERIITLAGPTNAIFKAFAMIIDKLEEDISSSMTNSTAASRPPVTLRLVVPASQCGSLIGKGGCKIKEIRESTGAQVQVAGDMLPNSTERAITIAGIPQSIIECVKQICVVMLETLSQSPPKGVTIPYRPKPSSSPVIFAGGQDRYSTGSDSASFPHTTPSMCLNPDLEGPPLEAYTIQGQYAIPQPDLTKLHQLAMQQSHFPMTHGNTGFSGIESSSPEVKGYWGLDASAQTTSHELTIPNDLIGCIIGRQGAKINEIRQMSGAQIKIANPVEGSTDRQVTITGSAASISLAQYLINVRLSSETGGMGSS
The next data set deals with IGF2BP3 (UniProt O00425). In outline: as §1
IGF2BP3, sequence (O00425 whole entry): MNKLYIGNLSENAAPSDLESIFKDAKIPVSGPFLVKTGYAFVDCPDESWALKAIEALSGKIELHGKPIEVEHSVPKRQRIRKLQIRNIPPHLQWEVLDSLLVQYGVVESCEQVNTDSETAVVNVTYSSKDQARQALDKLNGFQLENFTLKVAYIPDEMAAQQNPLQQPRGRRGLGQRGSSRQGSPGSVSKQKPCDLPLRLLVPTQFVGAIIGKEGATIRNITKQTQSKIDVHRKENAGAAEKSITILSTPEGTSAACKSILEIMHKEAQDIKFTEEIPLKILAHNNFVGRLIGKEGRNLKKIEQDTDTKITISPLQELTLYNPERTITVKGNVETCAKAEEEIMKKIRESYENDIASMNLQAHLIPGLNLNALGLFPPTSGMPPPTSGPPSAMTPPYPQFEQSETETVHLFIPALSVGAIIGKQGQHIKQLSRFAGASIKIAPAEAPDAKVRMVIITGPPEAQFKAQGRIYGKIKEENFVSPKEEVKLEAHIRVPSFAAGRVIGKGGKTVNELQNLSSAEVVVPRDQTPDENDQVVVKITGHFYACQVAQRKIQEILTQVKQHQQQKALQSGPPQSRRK
A further data set concerns the target MRPL19 (UniProt P49406). A digest of the protocol: as §1
The next data set addresses T4, PRPF31 (UniProt Q8WWY3).
T4 sequence: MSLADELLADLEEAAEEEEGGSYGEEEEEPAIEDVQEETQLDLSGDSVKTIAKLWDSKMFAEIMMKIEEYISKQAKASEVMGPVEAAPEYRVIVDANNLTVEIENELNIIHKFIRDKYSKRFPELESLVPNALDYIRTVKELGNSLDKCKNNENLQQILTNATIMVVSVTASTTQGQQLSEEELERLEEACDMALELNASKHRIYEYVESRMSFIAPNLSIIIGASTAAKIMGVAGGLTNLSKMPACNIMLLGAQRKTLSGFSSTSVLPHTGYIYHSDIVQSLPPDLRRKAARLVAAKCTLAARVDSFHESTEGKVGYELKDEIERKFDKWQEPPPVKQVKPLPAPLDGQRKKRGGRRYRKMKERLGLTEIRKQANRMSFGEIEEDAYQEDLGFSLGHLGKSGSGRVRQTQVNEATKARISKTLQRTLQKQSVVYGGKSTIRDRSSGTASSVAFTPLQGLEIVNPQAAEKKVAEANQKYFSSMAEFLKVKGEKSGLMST
In outline: as §1

In another data set the target is MRPS2 (UniProt Q9Y399). A digest of the protocol:
as §1

The next data set deals with ZCCHC11 (UniProt Q5TAX3). In outline:
as §1

The target of the next data set is T5, LSM6 (UniProt P62312).
T5 sequence: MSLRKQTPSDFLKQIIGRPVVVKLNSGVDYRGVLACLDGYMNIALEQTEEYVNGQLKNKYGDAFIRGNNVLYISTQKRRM
A digest of the protocol: as §1

ZCCHC11, sequence (Q5TAX3 whole entry): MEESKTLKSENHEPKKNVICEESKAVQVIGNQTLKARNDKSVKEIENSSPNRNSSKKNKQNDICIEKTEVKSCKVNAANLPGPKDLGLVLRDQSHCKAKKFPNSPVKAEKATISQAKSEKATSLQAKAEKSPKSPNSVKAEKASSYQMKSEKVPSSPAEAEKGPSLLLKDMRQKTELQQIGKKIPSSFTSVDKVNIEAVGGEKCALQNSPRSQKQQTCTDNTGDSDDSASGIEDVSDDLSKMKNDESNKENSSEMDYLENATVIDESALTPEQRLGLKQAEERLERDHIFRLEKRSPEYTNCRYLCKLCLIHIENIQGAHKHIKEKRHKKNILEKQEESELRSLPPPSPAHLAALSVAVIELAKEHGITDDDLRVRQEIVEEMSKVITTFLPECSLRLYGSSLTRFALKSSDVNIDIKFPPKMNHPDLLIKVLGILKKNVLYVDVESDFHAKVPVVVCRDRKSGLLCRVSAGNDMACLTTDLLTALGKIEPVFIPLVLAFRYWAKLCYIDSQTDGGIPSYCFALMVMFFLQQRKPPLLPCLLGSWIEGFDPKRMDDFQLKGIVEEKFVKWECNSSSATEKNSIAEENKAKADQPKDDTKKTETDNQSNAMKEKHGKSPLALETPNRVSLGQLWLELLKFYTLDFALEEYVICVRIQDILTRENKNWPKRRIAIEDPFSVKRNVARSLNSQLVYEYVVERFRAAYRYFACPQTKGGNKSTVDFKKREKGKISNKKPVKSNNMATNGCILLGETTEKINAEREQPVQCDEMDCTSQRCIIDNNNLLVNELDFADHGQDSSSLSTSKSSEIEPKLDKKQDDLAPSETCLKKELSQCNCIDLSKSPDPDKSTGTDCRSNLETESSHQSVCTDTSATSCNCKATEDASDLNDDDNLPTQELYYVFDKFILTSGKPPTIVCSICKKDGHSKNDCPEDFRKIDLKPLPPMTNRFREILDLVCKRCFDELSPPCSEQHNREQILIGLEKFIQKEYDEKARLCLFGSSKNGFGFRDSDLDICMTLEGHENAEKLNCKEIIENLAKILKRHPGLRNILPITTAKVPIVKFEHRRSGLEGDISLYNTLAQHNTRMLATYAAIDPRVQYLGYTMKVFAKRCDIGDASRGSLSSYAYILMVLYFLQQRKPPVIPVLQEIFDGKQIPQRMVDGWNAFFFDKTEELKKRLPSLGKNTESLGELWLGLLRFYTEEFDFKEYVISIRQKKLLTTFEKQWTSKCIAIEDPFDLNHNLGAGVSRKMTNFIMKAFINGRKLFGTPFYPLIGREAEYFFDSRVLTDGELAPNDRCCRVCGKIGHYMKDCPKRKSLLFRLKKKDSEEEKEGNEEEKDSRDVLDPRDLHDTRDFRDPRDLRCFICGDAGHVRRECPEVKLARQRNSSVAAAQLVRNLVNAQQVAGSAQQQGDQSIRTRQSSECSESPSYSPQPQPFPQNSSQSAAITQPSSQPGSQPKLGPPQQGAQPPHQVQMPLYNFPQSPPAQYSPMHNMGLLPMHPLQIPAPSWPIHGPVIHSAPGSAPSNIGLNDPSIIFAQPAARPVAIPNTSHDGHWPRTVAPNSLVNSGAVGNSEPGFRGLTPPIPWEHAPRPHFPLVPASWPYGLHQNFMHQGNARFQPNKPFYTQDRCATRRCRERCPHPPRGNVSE
SF3B6, sequence (Q9Y3B4 whole entry): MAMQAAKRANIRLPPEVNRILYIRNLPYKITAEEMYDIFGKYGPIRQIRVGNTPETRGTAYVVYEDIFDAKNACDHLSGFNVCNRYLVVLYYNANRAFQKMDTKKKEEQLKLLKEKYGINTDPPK

With AAUAAA, the Kd is 126 nM with SRSF11; 4.39 µM with ZGPAT; 6.29 µM with HNRNPF; 2270 nM in the data set with SF3B6; 126 nM with RPS17.

With CUGUCCU, the results for the Kd with PCBP2, in the data set with IGF2BP3 and in the data set with MRPL19 were 1240 nM, 685 nM and 54.1 nM, respectively.

Turning to UAUUUAU, the Kd was 2850 nM in the data set with PRPF31, 27.7 nM in the data set with MRPS2, 91.8 nM with ZCCHC11 and 275 nM in the data set with LSM6.
